Test results published in patent publication US20140256786.
Where two headings read alike, the source gives them in different places.

Legend:
[1] = tested on: GST-dMiroΔTM fusion protein (amino acids 1-634 of the full-length dMiro protein, transmembrane domain deleted) [GST: P08515]
[2] = target: GST-dMiroΔTM fusion protein (amino acids 1-634 of the full-length dMiro protein, transmembrane domain deleted) [GST: P08515]; remark: listed apart in the source

Molecule: mammalian PINK1 protein affinity purified from HEK293 cells by immunoprecipitation
- in vitro kinase assay [1]: also failed to phosphorylate GST-dMiroΔTM in these assays

B1: 2xGST-dPINK1 fusion protein with GST fused at both the N- and C-terminus of dPINK1 (protein)
chain: KEDELEGVCWEIREAASRLQNAWNHDEISDTLDSKFTIDDLEIGPPIAKGCAAVVYAADFKKDVASDGASLHTDAQPQATPAFAPNSWSTHEMMSPLQNMSRFVHNFGGSVDNVFHYSQPSAASDFVGAQSREQDQRHHEQQQHQNQEQEQHQNQEPSSSAFNVTSPANSNINSSVDSYPLALKMMFNYDIQSNALSILRAMYKETVPARQRGMNEAADEWERLLQNQTVHLPRHPNIVCMFGFFCDEVRNFPDGHLLYPVAQPQRINPQGYGRNMSLYLLMKRYDHSLRGLLDSQDLSTRNRILLLAQMLEAVNHLSRHGVAHRDLKSDNVLIELQDDAAPVLVLSDFGCCLADKVHGLRLPYVSHDVDKGGNAALMAPEIFNTMPGPFAVLNYGKADLWACGALAYEIFGNRNPFYSSSGGMARERGEMTLSLRNSDYRQDQLPPMSDACPPLLQQLVYNILNPNPSKRVSPDIAANVVQLFLWAPSNWLKAGGMPNSPEILQWLLSLTTKIMCEGRPQMGAGLMPVASCGNRRAYVEYLLICSFLARARLRRIRGALNWIQNVVA
- in vitro kinase assay (P32 autoradiography) [2]: failed to show phosphorylation of GST-dMiroΔTM

B2: Drosophila PINK1 protein affinity purified from HEK293 cells by immunoprecipitation (protein)
chain: MSVRLLTVRLIKHGRYILRSYCKRDIHANILDQNQLKTRSKRGFPLPSTAANVLRTTPQQAAKSVVNVVPRTINSPSGSPFNGSGSSPTSSSGIFRVGQHARKLFIDNILSRVTTTYSEDLRQRATRKLFFGDSAPFFALIGVSLASGSGVLSKEDELEGVCWEIREAASRLQNAWNHDEISDTLDSKFTIDDLEIGPPIAKGCAAVVYAADFKKDVASDGASLHTDAQPQATPAFAPNSWSTHEMMSPLQNMSRFVHNFGGSVDNVFHYSQPSAASDFVGAQSREQDQRHHEQQQHQNQEQEQHQNQEPSSSAFNVTSPANSNINSSVDSYPLALKMMFNYDIQSNALSILRAMYKETVPARQRGMNEAADEWERLLQNQTVHLPRHPNIVCMFGFFCDEVRNFPDGHLLYPVAQPQRINPQGYGRNMSLYLLMKRYDHSLRGLLDSQDLSTRNRILLLAQMLEAVNHLSRHGVAHRDLKSDNVLIELQDDAAPVLVLSDFGCCLADKVHGLRLPYVSHDVDKGGNAALMAPEIFNTMPGPFAVLNYGKADLWACGALAYEIFGNRNPFYSSSGGMARERGEMTLSLRNSDYRQDQLPPMSDACPPLLQQLVYNILNPNPSKRVSPDIAANVVQLFLWAPSNWLKAGGMPNSPEILQWLLSLTTKIMCEGRPQMGAGLMPVASCGNRRAYVEYLLICSFLARARLRRIRGALNWIQNVVA
- in vitro kinase assay [2]: also failed to phosphorylate GST-dMiroΔTM in these assays
